From paper PMC9482650, “Quantitative fragmentomics allow affinity mapping of interactomes” (Nature Communications, 2022)

T1: GRIP1_2, Q9Y3R0
T1 sequence (Q9Y3R0 145-248, limits assumed, looked up): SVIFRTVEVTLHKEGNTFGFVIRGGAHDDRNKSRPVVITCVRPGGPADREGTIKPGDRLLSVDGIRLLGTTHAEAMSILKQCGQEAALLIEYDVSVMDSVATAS

T2: LIN7A, O14910
T2 sequence (O14910 103-200, limits assumed, looked up): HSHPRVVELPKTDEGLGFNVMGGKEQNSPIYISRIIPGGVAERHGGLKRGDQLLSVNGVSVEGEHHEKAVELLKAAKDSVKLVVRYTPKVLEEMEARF

T3: APBA1_1, Q02410
T3 sequence (Q02410 651-752, limits assumed, looked up): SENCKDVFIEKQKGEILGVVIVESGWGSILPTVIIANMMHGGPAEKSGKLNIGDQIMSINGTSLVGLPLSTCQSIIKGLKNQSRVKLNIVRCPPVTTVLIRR

T4: NHERF3_1, Q5T2W1
T4 sequence (Q5T2W1 4-100, limits assumed, looked up): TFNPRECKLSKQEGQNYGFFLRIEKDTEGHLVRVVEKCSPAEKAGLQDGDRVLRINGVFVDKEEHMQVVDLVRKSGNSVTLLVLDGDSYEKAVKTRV

T5: RADIL, Q96JH8
T5 sequence (Q96JH8 971-1071, limits assumed, looked up): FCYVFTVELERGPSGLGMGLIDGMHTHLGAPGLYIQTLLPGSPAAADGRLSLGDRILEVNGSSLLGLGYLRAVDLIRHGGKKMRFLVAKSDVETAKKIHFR

T6: MPDZ_10, O75970
T6 sequence (O75970 1624-1722, limits assumed, looked up): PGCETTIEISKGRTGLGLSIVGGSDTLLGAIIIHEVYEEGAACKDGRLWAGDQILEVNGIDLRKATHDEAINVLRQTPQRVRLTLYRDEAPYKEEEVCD

T7: PCLO, Q9Y6V0
T7 sequence (Q9Y6V0 4491-4600, limits assumed, looked up): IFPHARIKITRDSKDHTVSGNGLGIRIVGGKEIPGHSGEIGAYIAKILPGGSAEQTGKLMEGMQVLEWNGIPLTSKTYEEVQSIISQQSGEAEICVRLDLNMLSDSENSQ

T8: GRIP1_3, Q9Y3R0
T8 sequence (Q9Y3R0 247-346, limits assumed, looked up): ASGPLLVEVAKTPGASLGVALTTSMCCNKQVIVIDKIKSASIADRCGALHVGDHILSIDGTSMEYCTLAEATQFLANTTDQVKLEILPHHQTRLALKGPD

T9: TIAM2, Q8IVF5
T9 sequence (Q8IVF5 885-986, limits assumed, looked up): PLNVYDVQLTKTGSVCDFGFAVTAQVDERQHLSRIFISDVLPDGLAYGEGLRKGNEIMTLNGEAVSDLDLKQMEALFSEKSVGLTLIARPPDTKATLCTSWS

T10: GRIP1_7, Q9Y3R0
T10 sequence (Q9Y3R0 999-1096, limits assumed, looked up): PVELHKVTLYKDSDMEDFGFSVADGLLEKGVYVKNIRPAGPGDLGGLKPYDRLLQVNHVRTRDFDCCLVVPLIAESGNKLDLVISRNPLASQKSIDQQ

B1: PRR16, Q569H4 (peptide)
chain: ILRKSTTTTV
B2: ZSCAN30, Q86W11 (peptide)
chain: MQHQRTHTRV
B3: PTPRZ1, P23471 (peptide)
chain: NIAESLESLV
B4: MARCHF3, Q86UD3 (peptide)
chain: VKRNSKETVV

Molecular target: TJP1_2, Q07157
Sequence (Q07157 181-274): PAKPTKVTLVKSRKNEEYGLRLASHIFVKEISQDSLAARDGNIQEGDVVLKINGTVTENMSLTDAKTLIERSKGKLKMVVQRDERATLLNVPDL
Assay: holdup assay
Parameters: key: below the threshold = too weak to quantify, mostly under pKd 3.1 to 4
Settings: plain residues with an end cap or a label only (N-terminal biotin on a linker: ado-ado)

Row | Binder | pKd
1 | B1 | below the threshold
2 | B2 | below the threshold
3 | B3 | below the threshold
4 | B4 | below the threshold

Molecular target: T1, GRIP1_2, Q9Y3R0
Assay: holdup assay
Parameters: key: below the threshold = too weak to quantify, mostly under pKd 3.1 to 4
Settings: plain residues with an end cap or a label only (N-terminal biotin on a linker: ado-ado)

Row | Binder | pKd
5 | B1 | below the threshold
6 | B2 | below the threshold
7 | B3 | below the threshold
8 | B4 | below the threshold

Molecular target: T2, LIN7A, O14910
Assay: holdup assay
Parameters: key: below the threshold = too weak to quantify, mostly under pKd 3.1 to 4
Settings: plain residues with an end cap or a label only (N-terminal biotin on a linker: ado-ado)

Row | Binder | pKd
9 | B1 | below the threshold
10 | B2 | below the threshold
11 | B3 | 4.04
12 | B4 | below the threshold

Molecular target: T3, APBA1_1, Q02410
Assay: holdup assay
Parameters: key: below the threshold = too weak to quantify, mostly under pKd 3.1 to 4
Settings: plain residues with an end cap or a label only (N-terminal biotin on a linker: ado-ado)

Row | Binder | pKd
13 | B1 | below the threshold
14 | B2 | below the threshold
15 | B3 | below the threshold
16 | B4 | below the threshold

Molecular target: Inadl_1, Q8NI35
Sequence (Q8NI35 113-229): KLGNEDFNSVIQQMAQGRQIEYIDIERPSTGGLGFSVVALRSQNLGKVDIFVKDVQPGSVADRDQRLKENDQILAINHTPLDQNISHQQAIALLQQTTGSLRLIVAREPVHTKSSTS
Assay: holdup assay
Parameters: key: below the threshold = too weak to quantify, mostly under pKd 3.1 to 4
Settings: plain residues with an end cap or a label only (N-terminal biotin on a linker: ado-ado)

Row | Binder | pKd
17 | B1 | below the threshold
18 | B2 | below the threshold
19 | B3 | below the threshold
20 | B4 | below the threshold

Molecular target: T4, NHERF3_1, Q5T2W1
Assay: holdup assay
Parameters: key: below the threshold = too weak to quantify, mostly under pKd 3.1 to 4
Settings: plain residues with an end cap or a label only (N-terminal biotin on a linker: ado-ado)

Row | Binder | pKd
21 | B1 | below the threshold
22 | B2 | 4
23 | B3 | 4.59
24 | B4 | below the threshold

Molecular target: DLG2_2, Q15700
Assay: holdup assay
Parameters: key: below the threshold = too weak to quantify, mostly under pKd 3.1 to 4
Settings: plain residues with an end cap or a label only (N-terminal biotin on a linker: ado-ado)

Row | Binder | pKd
25 | B1 | 5.17
26 | B2 | 4.76
27 | B3 | 4.72
28 | B4 | 6.12

Molecular target: GRIP2_7, Q9C0E4
Sequence (Q9C0E4 934-1023): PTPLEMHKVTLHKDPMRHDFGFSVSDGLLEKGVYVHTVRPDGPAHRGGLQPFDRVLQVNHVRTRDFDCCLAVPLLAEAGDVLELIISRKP
Assay: holdup assay
Parameters: key: below the threshold = too weak to quantify, mostly under pKd 3.1 to 4
Settings: plain residues with an end cap or a label only (N-terminal biotin on a linker: ado-ado)

Row | Binder | pKd
29 | B1 | below the threshold
30 | B2 | below the threshold
31 | B3 | below the threshold
32 | B4 | below the threshold

Molecular target: T5, RADIL, Q96JH8
Assay: holdup assay
Parameters: key: below the threshold = too weak to quantify, mostly under pKd 3.1 to 4
Settings: plain residues with an end cap or a label only (N-terminal biotin on a linker: ado-ado)

Row | Binder | pKd
33 | B1 | 3.64
34 | B2 | 4.14
35 | B3 | 4.3
36 | B4 | 4.04

Molecular target: GORASP2, Q9H8Y8
Assay: holdup assay
Parameters: key: below the threshold = too weak to quantify, mostly under pKd 3.1 to 4
Settings: plain residues with an end cap or a label only (N-terminal biotin on a linker: ado-ado)

Row | Binder | pKd
37 | B1 | 4.73
38 | B2 | 4.38
39 | B3 | below the threshold
40 | B4 | 4.6

Molecular target: GRID2IP_1, A4D2P6
Sequence (A4D2P6 1-87): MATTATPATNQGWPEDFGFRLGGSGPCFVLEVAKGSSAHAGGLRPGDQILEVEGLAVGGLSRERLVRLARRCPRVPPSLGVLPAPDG
Assay: holdup assay
Parameters: key: below the threshold = too weak to quantify, mostly under pKd 3.1 to 4
Settings: plain residues with an end cap or a label only (N-terminal biotin on a linker: ado-ado)

Row | Binder | pKd
41 | B1 | below the threshold
42 | B2 | 3.57
43 | B3 | below the threshold
44 | B4 | below the threshold

Molecular target: GOPC, Q9HD26
Assay: holdup assay
Parameters: key: below the threshold = too weak to quantify, mostly under pKd 3.1 to 4
Settings: plain residues with an end cap or a label only (N-terminal biotin on a linker: ado-ado)

Row | Binder | pKd
45 | B1 | 3.92
46 | B2 | 4.41
47 | B3 | below the threshold
48 | B4 | below the threshold

Molecular target: NHERF4_4, Q86UT5
Sequence (Q86UT5 464-550): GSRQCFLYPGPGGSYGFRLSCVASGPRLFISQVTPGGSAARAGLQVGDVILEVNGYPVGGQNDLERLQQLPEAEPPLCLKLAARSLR
Assay: holdup assay
Parameters: key: below the threshold = too weak to quantify, mostly under pKd 3.1 to 4
Settings: plain residues with an end cap or a label only (N-terminal biotin on a linker: ado-ado)

Row | Binder | pKd
49 | B1 | below the threshold
50 | B2 | below the threshold
51 | B3 | below the threshold
52 | B4 | below the threshold

Molecular target: SCRIB_3, Q14160
Sequence (Q14160 999-1103): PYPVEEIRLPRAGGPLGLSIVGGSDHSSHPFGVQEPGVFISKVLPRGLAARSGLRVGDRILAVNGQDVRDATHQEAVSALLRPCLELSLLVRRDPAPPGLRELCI
Assay: holdup assay
Parameters: key: below the threshold = too weak to quantify, mostly under pKd 3.1 to 4
Settings: plain residues with an end cap or a label only (N-terminal biotin on a linker: ado-ado)

Row | Binder | pKd
53 | B1 | 3.67
54 | B2 | 3.51
55 | B3 | 3.87
56 | B4 | 4.51

Molecular target: DLG2_3, Q15700
Assay: holdup assay
Parameters: key: below the threshold = too weak to quantify, mostly under pKd 3.1 to 4
Settings: plain residues with an end cap or a label only (N-terminal biotin on a linker: ado-ado)

Row | Binder | pKd
57 | B1 | 4.38
58 | B2 | 4.67
59 | B3 | below the threshold
60 | B4 | 4.91

Molecular target: TJP1_3, Q07157
Sequence (Q07157 416-512): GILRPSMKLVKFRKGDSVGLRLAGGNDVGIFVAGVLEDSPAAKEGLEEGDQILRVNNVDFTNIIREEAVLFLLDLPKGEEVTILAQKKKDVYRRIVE
Assay: holdup assay
Parameters: key: below the threshold = too weak to quantify, mostly under pKd 3.1 to 4
Settings: plain residues with an end cap or a label only (N-terminal biotin on a linker: ado-ado)

Row | Binder | pKd
61 | B1 | below the threshold
62 | B2 | below the threshold
63 | B3 | below the threshold
64 | B4 | below the threshold

Molecular target: GIPC2, Q8TF65
Sequence (Q8TF65 112-203): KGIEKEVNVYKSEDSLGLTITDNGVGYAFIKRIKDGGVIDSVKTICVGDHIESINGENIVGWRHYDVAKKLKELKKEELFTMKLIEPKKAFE
Assay: holdup assay
Parameters: key: below the threshold = too weak to quantify, mostly under pKd 3.1 to 4
Settings: plain residues with an end cap or a label only (N-terminal biotin on a linker: ado-ado)

Row | Binder | pKd
65 | B1 | below the threshold
66 | B2 | 3.48
67 | B3 | below the threshold
68 | B4 | below the threshold

Molecular target: T6, MPDZ_10, O75970
Assay: holdup assay
Parameters: key: below the threshold = too weak to quantify, mostly under pKd 3.1 to 4
Settings: plain residues with an end cap or a label only (N-terminal biotin on a linker: ado-ado)

Row | Binder | pKd
69 | B1 | below the threshold
70 | B2 | 3.7
71 | B3 | below the threshold
72 | B4 | below the threshold

Molecular target: T7, PCLO, Q9Y6V0
Assay: holdup assay
Parameters: key: below the threshold = too weak to quantify, mostly under pKd 3.1 to 4
Settings: plain residues with an end cap or a label only (N-terminal biotin on a linker: ado-ado)

Row | Binder | pKd
73 | B1 | below the threshold
74 | B2 | below the threshold
75 | B3 | below the threshold
76 | B4 | below the threshold

Molecular target: AHNAK1, Q09666
Sequence (Q09666 4-100): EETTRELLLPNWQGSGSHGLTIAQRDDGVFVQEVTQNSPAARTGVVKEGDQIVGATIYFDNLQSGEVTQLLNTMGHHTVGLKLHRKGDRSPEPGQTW
Assay: holdup assay
Parameters: key: below the threshold = too weak to quantify, mostly under pKd 3.1 to 4
Settings: plain residues with an end cap or a label only (N-terminal biotin on a linker: ado-ado)

Row | Binder | pKd
77 | B1 | below the threshold
78 | B2 | below the threshold
79 | B3 | below the threshold
80 | B4 | below the threshold

Molecular target: T8, GRIP1_3, Q9Y3R0
Assay: holdup assay
Parameters: key: below the threshold = too weak to quantify, mostly under pKd 3.1 to 4
Settings: plain residues with an end cap or a label only (N-terminal biotin on a linker: ado-ado)

Row | Binder | pKd
81 | B1 | below the threshold
82 | B2 | below the threshold
83 | B3 | below the threshold
84 | B4 | below the threshold

Molecular target: T9, TIAM2, Q8IVF5
Assay: holdup assay
Parameters: key: below the threshold = too weak to quantify, mostly under pKd 3.1 to 4
Settings: plain residues with an end cap or a label only (N-terminal biotin on a linker: ado-ado)

Row | Binder | pKd
85 | B1 | below the threshold
86 | B2 | 3.89
87 | B3 | below the threshold
88 | B4 | 3.73

Molecular target: DLG1_3, Q12959
Assay: holdup assay
Parameters: key: below the threshold = too weak to quantify, mostly under pKd 3.1 to 4
Settings: plain residues with an end cap or a label only (N-terminal biotin on a linker: ado-ado)

Row | Binder | pKd
89 | B1 | 3.63
90 | B2 | 3.81
91 | B3 | below the threshold
92 | B4 | 4.32

Molecular target: T10, GRIP1_7, Q9Y3R0
Assay: holdup assay
Parameters: key: below the threshold = too weak to quantify, mostly under pKd 3.1 to 4
Settings: plain residues with an end cap or a label only (N-terminal biotin on a linker: ado-ado)

Row | Binder | pKd
93 | B1 | below the threshold
94 | B2 | below the threshold
95 | B3 | below the threshold
96 | B4 | below the threshold

Molecular target: MAGI2_3, Q86UL8
Sequence (Q86UL8 600-682): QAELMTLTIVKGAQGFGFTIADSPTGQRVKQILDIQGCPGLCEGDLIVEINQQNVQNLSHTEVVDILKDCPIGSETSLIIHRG
Assay: holdup assay
Parameters: key: below the threshold = too weak to quantify, mostly under pKd 3.1 to 4
Settings: plain residues with an end cap or a label only (N-terminal biotin on a linker: ado-ado)

Row | Binder | pKd
97 | B1 | 3.74
98 | B2 | below the threshold
99 | B3 | 4.44
100 | B4 | 4.2

Molecular target: MAGI2_2, Q86UL8
Sequence (Q86UL8 410-522): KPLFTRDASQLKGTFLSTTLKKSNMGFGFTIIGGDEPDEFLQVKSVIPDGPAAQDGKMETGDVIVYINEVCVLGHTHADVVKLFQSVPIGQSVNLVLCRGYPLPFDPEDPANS
Assay: holdup assay
Parameters: key: below the threshold = too weak to quantify, mostly under pKd 3.1 to 4
Settings: plain residues with an end cap or a label only (N-terminal biotin on a linker: ado-ado)

Row | Binder | pKd
101 | B1 | 5.2
102 | B2 | 5.42
103 | B3 | 4.28
104 | B4 | 5.26

Molecular target: DLG1_1, Q12959
Assay: holdup assay
Parameters: key: below the threshold = too weak to quantify, mostly under pKd 3.1 to 4
Settings: plain residues with an end cap or a label only (N-terminal biotin on a linker: ado-ado)

Row | Binder | pKd
105 | B1 | 4.76
106 | B2 | 4.41
107 | B3 | 4.57
108 | B4 | 5.48

Molecular target: LDB3, O75112
Sequence (O75112 1-94): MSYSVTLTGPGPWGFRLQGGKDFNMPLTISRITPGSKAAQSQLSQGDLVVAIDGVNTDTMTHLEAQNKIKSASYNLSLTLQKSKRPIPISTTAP
Assay: holdup assay
Parameters: key: below the threshold = too weak to quantify, mostly under pKd 3.1 to 4
Settings: plain residues with an end cap or a label only (N-terminal biotin on a linker: ado-ado)

Row | Binder | pKd
109 | B1 | below the threshold
110 | B2 | below the threshold
111 | B3 | below the threshold
112 | B4 | below the threshold
